Test results reported in IntAct's records for PubMed 9819391.

Experiments:
crk_human CRK = crk_human CRK (UniProt P46108)
src_chick SRC [1] = biological target: src_chick SRC (UniProt P00523)
src_chick SRC [2] = biological target: src_chick SRC (UniProt P00523); remark: listed apart in the source

Sequence of crk_human CRK (P46108 whole entry): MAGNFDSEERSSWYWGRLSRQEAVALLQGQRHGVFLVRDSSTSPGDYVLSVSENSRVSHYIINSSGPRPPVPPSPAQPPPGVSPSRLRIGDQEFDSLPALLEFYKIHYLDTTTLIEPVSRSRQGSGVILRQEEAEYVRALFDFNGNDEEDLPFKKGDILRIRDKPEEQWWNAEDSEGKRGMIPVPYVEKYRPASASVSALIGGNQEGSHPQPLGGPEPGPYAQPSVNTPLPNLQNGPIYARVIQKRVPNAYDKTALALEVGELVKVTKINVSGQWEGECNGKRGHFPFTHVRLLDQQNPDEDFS
Sequence of Arf-GAP with SH3 domain, ANK repeat and PH domain-containing protein 1 (Mus musculus), Q9QWY8-1 R811A (Q9QWY8 whole entry R811A, the tested form may be a part): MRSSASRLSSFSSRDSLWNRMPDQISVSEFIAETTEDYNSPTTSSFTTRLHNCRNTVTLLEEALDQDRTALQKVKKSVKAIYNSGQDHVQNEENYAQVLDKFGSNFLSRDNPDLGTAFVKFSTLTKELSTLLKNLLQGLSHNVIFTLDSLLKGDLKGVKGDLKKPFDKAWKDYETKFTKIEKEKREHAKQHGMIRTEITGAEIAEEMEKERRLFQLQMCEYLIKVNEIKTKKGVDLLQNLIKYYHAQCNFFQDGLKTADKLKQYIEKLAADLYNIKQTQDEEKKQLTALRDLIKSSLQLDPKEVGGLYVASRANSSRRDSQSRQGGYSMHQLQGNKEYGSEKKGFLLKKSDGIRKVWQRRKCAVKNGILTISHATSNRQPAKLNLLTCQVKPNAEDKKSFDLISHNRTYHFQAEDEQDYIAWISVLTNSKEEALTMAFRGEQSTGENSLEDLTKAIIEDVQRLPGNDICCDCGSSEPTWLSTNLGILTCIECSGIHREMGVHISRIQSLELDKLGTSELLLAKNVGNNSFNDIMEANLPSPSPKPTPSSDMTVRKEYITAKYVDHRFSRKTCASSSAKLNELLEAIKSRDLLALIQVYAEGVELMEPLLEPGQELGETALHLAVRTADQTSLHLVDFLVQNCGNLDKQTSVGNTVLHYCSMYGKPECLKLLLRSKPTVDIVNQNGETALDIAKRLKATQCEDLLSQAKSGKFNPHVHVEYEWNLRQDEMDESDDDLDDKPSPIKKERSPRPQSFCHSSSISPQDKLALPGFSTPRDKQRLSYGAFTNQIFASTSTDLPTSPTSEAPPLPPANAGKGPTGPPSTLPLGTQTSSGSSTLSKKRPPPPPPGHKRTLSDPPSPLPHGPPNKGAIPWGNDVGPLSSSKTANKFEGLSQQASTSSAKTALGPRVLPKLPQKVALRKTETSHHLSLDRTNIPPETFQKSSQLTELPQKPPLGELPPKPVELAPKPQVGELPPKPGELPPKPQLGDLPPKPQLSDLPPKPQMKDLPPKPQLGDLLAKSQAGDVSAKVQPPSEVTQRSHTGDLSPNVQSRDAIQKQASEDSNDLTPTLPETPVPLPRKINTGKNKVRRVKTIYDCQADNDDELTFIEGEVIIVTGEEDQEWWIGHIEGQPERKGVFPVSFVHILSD
Sequence of Arf-GAP with SH3 domain, ANK repeat and PH domain-containing protein 1 (Mus musculus), Q9QWY8-1 P910A;P913A (Q9QWY8 whole entry P910A/P913A, the tested form may be a part): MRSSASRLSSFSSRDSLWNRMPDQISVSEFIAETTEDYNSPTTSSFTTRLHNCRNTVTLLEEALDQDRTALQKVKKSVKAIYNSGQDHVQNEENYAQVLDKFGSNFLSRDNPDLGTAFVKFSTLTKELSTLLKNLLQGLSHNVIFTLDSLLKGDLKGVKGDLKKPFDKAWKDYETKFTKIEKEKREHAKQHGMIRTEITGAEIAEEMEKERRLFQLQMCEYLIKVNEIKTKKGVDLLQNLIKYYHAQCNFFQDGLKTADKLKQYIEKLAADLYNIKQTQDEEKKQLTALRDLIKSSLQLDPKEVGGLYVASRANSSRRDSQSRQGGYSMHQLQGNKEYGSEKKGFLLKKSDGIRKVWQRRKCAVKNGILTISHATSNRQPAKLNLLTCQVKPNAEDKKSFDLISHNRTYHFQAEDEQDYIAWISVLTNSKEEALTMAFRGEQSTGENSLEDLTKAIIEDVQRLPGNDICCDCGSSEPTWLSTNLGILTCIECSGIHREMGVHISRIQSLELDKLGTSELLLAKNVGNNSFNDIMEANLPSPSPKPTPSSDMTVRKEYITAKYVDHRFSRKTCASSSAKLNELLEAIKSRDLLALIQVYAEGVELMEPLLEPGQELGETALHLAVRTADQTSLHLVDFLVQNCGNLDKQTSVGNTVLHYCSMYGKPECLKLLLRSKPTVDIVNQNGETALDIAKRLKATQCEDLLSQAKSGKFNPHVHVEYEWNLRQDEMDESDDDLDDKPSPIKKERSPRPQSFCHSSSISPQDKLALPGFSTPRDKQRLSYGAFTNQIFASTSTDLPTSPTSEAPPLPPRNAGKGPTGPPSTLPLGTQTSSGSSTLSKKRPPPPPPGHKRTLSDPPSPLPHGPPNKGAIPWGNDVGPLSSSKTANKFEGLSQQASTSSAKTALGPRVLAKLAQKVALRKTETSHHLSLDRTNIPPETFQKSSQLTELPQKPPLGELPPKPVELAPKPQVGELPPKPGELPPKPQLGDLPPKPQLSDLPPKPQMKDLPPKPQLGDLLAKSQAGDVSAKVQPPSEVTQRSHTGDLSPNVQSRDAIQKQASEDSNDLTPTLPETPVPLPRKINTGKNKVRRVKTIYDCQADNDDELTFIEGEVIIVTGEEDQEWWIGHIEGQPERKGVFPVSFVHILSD
Sequence of Arf-GAP with SH3 domain, ANK repeat and PH domain-containing protein 1 (Mus musculus), Q9QWY8-1 R811A;P910A;P913A (Q9QWY8 whole entry R811A/P910A/P913A, the tested form may be a part): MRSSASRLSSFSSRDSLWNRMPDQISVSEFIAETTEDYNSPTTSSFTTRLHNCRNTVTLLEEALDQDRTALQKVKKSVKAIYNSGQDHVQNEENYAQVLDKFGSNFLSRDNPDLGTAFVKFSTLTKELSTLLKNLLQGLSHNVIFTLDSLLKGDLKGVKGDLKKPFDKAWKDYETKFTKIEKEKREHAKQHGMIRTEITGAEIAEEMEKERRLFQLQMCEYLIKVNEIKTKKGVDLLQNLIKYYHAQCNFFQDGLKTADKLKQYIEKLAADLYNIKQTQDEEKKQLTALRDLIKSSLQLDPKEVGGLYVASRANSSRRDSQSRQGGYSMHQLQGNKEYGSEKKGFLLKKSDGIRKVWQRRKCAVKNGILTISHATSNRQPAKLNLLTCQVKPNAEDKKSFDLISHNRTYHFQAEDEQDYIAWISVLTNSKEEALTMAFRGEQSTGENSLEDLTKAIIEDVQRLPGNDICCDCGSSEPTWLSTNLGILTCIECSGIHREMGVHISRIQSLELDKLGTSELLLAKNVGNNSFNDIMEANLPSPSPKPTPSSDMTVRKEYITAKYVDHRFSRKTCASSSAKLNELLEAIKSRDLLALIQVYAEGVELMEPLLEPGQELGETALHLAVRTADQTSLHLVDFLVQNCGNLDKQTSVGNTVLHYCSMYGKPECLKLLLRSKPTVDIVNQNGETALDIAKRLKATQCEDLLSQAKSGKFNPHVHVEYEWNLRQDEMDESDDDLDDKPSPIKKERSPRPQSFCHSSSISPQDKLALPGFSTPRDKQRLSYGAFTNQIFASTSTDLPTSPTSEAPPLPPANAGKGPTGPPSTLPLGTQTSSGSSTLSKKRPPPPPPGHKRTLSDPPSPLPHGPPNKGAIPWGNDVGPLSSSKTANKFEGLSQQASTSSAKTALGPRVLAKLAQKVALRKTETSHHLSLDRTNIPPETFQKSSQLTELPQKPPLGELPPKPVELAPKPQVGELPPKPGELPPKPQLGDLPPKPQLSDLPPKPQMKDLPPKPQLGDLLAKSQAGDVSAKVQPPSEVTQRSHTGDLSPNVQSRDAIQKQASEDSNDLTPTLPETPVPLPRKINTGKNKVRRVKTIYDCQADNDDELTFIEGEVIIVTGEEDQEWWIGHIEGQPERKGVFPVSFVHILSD
Sequence of Arf-GAP with SH3 domain, ANK repeat and PH domain-containing protein 1 (Mus musculus), Q9QWY8-2 R811A;P849A;P853A (Q9QWY8 other isoform, or with tags, fused parts or gaps R811A;P849A;P853A): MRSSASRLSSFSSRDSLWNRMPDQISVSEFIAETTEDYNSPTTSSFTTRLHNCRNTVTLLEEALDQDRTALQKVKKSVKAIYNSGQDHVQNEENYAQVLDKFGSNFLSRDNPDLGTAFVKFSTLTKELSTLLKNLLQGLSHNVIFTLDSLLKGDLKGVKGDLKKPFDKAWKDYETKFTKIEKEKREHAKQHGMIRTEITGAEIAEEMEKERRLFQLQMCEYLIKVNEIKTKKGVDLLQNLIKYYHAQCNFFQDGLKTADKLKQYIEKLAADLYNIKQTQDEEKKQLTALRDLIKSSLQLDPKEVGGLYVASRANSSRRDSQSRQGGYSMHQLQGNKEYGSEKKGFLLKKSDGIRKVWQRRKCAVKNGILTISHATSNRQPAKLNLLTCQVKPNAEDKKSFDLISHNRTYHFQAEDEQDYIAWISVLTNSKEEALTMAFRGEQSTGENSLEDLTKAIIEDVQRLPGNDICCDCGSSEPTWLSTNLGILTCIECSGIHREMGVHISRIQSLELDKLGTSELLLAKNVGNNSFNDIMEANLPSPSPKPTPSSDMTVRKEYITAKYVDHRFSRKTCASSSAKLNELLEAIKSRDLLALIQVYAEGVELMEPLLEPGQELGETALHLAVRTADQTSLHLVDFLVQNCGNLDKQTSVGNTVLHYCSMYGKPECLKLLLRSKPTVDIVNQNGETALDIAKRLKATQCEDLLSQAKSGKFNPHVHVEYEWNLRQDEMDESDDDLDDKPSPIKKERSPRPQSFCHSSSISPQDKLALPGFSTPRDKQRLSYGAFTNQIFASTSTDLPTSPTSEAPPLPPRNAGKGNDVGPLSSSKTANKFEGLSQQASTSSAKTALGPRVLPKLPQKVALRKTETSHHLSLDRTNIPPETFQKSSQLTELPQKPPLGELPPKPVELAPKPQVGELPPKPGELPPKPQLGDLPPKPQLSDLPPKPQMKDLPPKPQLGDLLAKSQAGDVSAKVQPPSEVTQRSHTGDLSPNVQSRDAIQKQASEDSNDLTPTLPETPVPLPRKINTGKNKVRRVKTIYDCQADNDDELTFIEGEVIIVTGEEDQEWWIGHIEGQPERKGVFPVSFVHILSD

| effect of a mutation on the interaction (crk_human CRK) | effect of a mutation on the interaction (src_chick SRC [1]) | effect of a mutation on the interaction (src_chick SRC [2]) | Substance |
| --- | --- | --- | --- |
| disrupting interaction |  |  | Arf-GAP with SH3 domain, ANK repeat and PH domain-containing protein 1 (Mus musculus), Q9QWY8-1 R811A;P910A;P913A |
| decreasing interaction | decreasing interaction |  | Arf-GAP with SH3 domain, ANK repeat and PH domain-containing protein 1 (Mus musculus), Q9QWY8-1 P910A;P913A |
| decreasing interaction | decreasing interaction |  | Arf-GAP with SH3 domain, ANK repeat and PH domain-containing protein 1 (Mus musculus), Q9QWY8-1 R811A |
|  |  | disrupting interaction | Arf-GAP with SH3 domain, ANK repeat and PH domain-containing protein 1 (Mus musculus), Q9QWY8-2 R811A;P849A;P853A |
